Reference: the supplement of paper PMC9112550, “Optimization of the antimicrobial peptide Bac7 by deep mutational scanning” (BMC Biology, 2022)

Test system: Escherichia coli TOP10
Assay: shrunken log2 fold change of peptide-encoding DNA abundance (4.5 h post-induction vs induction); higher = less antimicrobial activity (less host growth inhibition)
Conditions: time post-induction: 4.5 h; library: site-saturation at positions 5, 18, 19, 20
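Also: peptides expressed intracellularly from a pBAD plasmid library in pooled LB shake-flask culture, induced with 0.3% L-arabinose, DNA abundance read by NGS, three biological replicates, DESeq2 with apeglm shrinkage.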

Sequence	shrunken log2 fold change
RRIRYRPPRLPRPRPRPCTPPRP	-1.14
RRIRPRPPRLPRPRPRPKPVPRP	0.154
RRIRQRPPRLPRPRPRPMGWPRP	0.379
RRIRWRPPRLPRPRPRPFTNPRP	0.115
RRIRDRPPRLPRPRPRPWNHPRP	-0.00185
RRIRYRPPRLPRPRPRPFNHPRP	-0.732
RRIRRRPPRLPRPRPRPRGQPRP	1.11
RRIRARPPRLPRPRPRPHGQPRP	0.0639
RRIRRRPPRLPRPRPRPWQCPRP	-0.0743
RRIRVRPPRLPRPRPRPMWFPRP	-0.0469
RRIRGRPPRLPRPRPRPDFVPRP	0.0455
RRIRPRPPRLPRPRPRPFNAPRP	-0.287
RRIRARPPRLPRPRPRPWELPRP	0.0412
RRIRKRPPRLPRPRPRPVLAPRP	0.605
RRIRDRPPRLPRPRPRPSYVPRP	-0.206
RRIRQRPPRLPRPRPRPRMFPRP	0.0604
RRIRNRPPRLPRPRPRPESFPRP	-0.0337
RRIRFRPPRLPRPRPRPYGIPRP	-0.00674
RRIRTRPPRLPRPRPRPIHDPRP	-0.0511
RRIRRRPPRLPRPRPRPNPKPRP	0.172
RRIRSRPPRLPRPRPRPGNQPRP	-0.0918
RRIRERPPRLPRPRPRPEKNPRP	-0.126
RRIRARPPRLPRPRPRPPDCPRP	0.56
RRIRFRPPRLPRPRPRPNHYPRP	-0.62
RRIRFRPPRLPRPRPRPPDLPRP	-0.329

Sequence	shrunken log2 fold change
RRIRFRPPRLPRPRPRPSDRPRP	-0.853
RRIRVRPPRLPRPRPRPDMKPRP	0.0218
RRIRSRPPRLPRPRPRPRLLPRP	0.229
RRIRDRPPRLPRPRPRPNHVPRP	-0.242
RRIRPRPPRLPRPRPRPLWRPRP	0.446
RRIRRRPPRLPRPRPRPADHPRP	-0.115
RRIRTRPPRLPRPRPRPRNRPRP	-0.0827
RRIRWRPPRLPRPRPRPQAEPRP	0.0113
RRIRFRPPRLPRPRPRPDGLPRP	0.00785
RRIRCRPPRLPRPRPRPKEHPRP	-0.201
RRIRCRPPRLPRPRPRPGSAPRP	0.148
RRIRARPPRLPRPRPRPTLVPRP	0.562
RRIRNRPPRLPRPRPRPRDWPRP	0.0384
RRIRMRPPRLPRPRPRPRAHPRP	0.758
RRIRTRPPRLPRPRPRPFSKPRP	0.0087
RRIRSRPPRLPRPRPRPFHPPRP	0.0938
RRIRNRPPRLPRPRPRPVMYPRP	-0.128
RRIRARPPRLPRPRPRPTVMPRP	0.497
RRIRRRPPRLPRPRPRPYSAPRP	-0.137
RRIRWRPPRLPRPRPRPSDDPRP	0.328
RRIRRRPPRLPRPRPRPSITPRP	-0.225
RRIRWRPPRLPRPRPRPALDPRP	0.553
RRIRYRPPRLPRPRPRPQLQPRP	-0.137
RRIRMRPPRLPRPRPRPNCMPRP	0.183
RRIRHRPPRLPRPRPRPYKQPRP	-0.0238

Sequence	shrunken log2 fold change
RRIRFRPPRLPRPRPRPPKCPRP	0.0793
RRIRYRPPRLPRPRPRPAEQPRP	0.0374
RRIRYRPPRLPRPRPRPANDPRP	-0.0297
RRIRGRPPRLPRPRPRPHKTPRP	-0.0617
RRIRDRPPRLPRPRPRPESRPRP	0.0324
RRIRTRPPRLPRPRPRPEKSPRP	0.288
RRIRSRPPRLPRPRPRPEHYPRP	-0.132
RRIRNRPPRLPRPRPRPYRFPRP	-0.00669
RRIRRRPPRLPRPRPRPRLLPRP	0.474
RRIRYRPPRLPRPRPRPLPAPRP	-0.165
RRIRHRPPRLPRPRPRPLADPRP	0.26
RRIRRRPPRLPRPRPRPRLHPRP	0.435
RRIRTRPPRLPRPRPRPMHDPRP	-0.00302
RRIRSRPPRLPRPRPRPPYYPRP	-0.174
RRIRDRPPRLPRPRPRPVYWPRP	-0.469
RRIRSRPPRLPRPRPRPNHIPRP	-0.651
RRIRPRPPRLPRPRPRPDYPPRP	-0.0173
RRIRIRPPRLPRPRPRPYFMPRP	-1.21
RRIRPRPPRLPRPRPRPRVPPRP	0.342
RRIRQRPPRLPRPRPRPVYCPRP	-0.155
RRIRFRPPRLPRPRPRPIGPPRP	0.0274
RRIRKRPPRLPRPRPRPNCFPRP	0.274
RRIRNRPPRLPRPRPRPNCGPRP	0.0526
RRIRHRPPRLPRPRPRPSVGPRP	0.319
RRIRARPPRLPRPRPRPTEIPRP	-0.0477

Sequence	shrunken log2 fold change
RRIRPRPPRLPRPRPRPLDCPRP	0.0595
RRIRARPPRLPRPRPRPHYCPRP	-0.17
RRIRIRPPRLPRPRPRPMCSPRP	-0.119
RRIRYRPPRLPRPRPRPMYWPRP	-0.451
RRIRPRPPRLPRPRPRPTGNPRP	0.141
RRIRSRPPRLPRPRPRPIMMPRP	-0.0828
RRIRERPPRLPRPRPRPDMSPRP	-0.064
RRIRTRPPRLPRPRPRPRAKPRP	0.346
RRIRYRPPRLPRPRPRPYCTPRP	-1.54
RRIRCRPPRLPRPRPRPMCSPRP	-0.218
RRIRARPPRLPRPRPRPYWDPRP	-0.964
RRIRFRPPRLPRPRPRPDVLPRP	-0.0865
RRIRGRPPRLPRPRPRPPNLPRP	0.463
RRIRYRPPRLPRPRPRPMMPPRP	-0.0554
RRIRMRPPRLPRPRPRPICRPRP	0.297
RRIRLRPPRLPRPRPRPKVVPRP	-0.0761
RRIRWRPPRLPRPRPRPFPVPRP	-0.0948
RRIRGRPPRLPRPRPRPQMAPRP	0.923
RRIRARPPRLPRPRPRPFTVPRP	-0.253
RRIRNRPPRLPRPRPRPSNRPRP	-0.138
RRIRCRPPRLPRPRPRPMFNPRP	-0.848
RRIRIRPPRLPRPRPRPMIYPRP	-0.205
RRIRDRPPRLPRPRPRPVWGPRP	0.67
RRIRGRPPRLPRPRPRPDSMPRP	0.245
RRIRSRPPRLPRPRPRPIGVPRP	0.049

Sequence	shrunken log2 fold change
RRIRYRPPRLPRPRPRPQDDPRP	-0.0017
RRIRHRPPRLPRPRPRPTRGPRP	0.0497
RRIRVRPPRLPRPRPRPGDGPRP	0.532
RRIRIRPPRLPRPRPRPFDWPRP	0.305
RRIRMRPPRLPRPRPRPKHKPRP	0.562
RRIRPRPPRLPRPRPRPRPYPRP	0.173
RRIRGRPPRLPRPRPRPQYWPRP	0.122
RRIRERPPRLPRPRPRPLFSPRP	-0.364
RRIRGRPPRLPRPRPRPQQEPRP	0.0132
RRIRQRPPRLPRPRPRPQVWPRP	-0.0346
RRIRRRPPRLPRPRPRPRDPPRP	0.74
RRIRERPPRLPRPRPRPNCEPRP	-0.155
RRIRERPPRLPRPRPRPARFPRP	0.168
RRIRCRPPRLPRPRPRPRAFPRP	-0.0361
RRIRSRPPRLPRPRPRPGLHPRP	0.186
RRIRQRPPRLPRPRPRPIHHPRP	-0.167
RRIRLRPPRLPRPRPRPGDNPRP	0.0735
RRIRGRPPRLPRPRPRPKIYPRP	0.000217
RRIRIRPPRLPRPRPRPAISPRP	0.0106
RRIRQRPPRLPRPRPRPGMQPRP	0.00486
RRIRARPPRLPRPRPRPLPTPRP	0.771
RRIRNRPPRLPRPRPRPQCHPRP	-0.42
RRIRRRPPRLPRPRPRPNVMPRP	-0.149
RRIRYRPPRLPRPRPRPMRQPRP	-0.0148
RRIRPRPPRLPRPRPRPLPNPRP	0.0283

Sequence	shrunken log2 fold change
RRIRSRPPRLPRPRPRPMAKPRP	0.206
RRIRERPPRLPRPRPRPYCMPRP	-1.06
RRIRTRPPRLPRPRPRPGDEPRP	0.195
RRIRCRPPRLPRPRPRPWWPPRP	0.0266
RRIRRRPPRLPRPRPRPLTYPRP	-0.204
RRIRSRPPRLPRPRPRPYLKPRP	-0.0359
RRIRMRPPRLPRPRPRPRRHPRP	1.02
RRIRNRPPRLPRPRPRPSIHPRP	-0.185
RRIRYRPPRLPRPRPRPHDIPRP	-0.00174
RRIRVRPPRLPRPRPRPTWIPRP	0.216
RRIRRRPPRLPRPRPRPQSKPRP	-0.0754
RRIRWRPPRLPRPRPRPCRHPRP	0.0955
RRIRFRPPRLPRPRPRPDTDPRP	0.479
RRIRKRPPRLPRPRPRPQHPPRP	0.105
RRIRNRPPRLPRPRPRPFTYPRP	-0.0143
RRIRERPPRLPRPRPRPDMMPRP	0.0556
RRIRVRPPRLPRPRPRPTCYPRP	-0.118
RRIRARPPRLPRPRPRPITDPRP	-0.0703
RRIRRRPPRLPRPRPRPMGNPRP	0.0273
RRIRDRPPRLPRPRPRPLKHPRP	-0.927
RRIRPRPPRLPRPRPRPRWNPRP	0.115
RRIRNRPPRLPRPRPRPMDHPRP	0.0184
RRIRKRPPRLPRPRPRPRWRPRP	0.658
RRIRKRPPRLPRPRPRPFCHPRP	0.00474
RRIRKRPPRLPRPRPRPSWDPRP	-0.164
